From US20150299255A1

Target: lectin SNA1 from Sambucus nigra (Sambucus nigra) (UniProt Q41358)
Sequence (Q41358 29-289 limits assumed, chain 1 of 2): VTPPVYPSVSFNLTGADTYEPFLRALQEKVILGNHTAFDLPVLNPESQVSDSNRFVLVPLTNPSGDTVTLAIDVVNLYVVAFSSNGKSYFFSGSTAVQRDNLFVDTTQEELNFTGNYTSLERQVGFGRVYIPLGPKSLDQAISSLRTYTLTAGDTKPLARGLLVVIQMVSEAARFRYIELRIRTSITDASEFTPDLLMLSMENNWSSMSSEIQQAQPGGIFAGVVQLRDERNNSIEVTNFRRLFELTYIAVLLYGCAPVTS
Sequence (Q41358 309-570 limits assumed, chain 2 of 2): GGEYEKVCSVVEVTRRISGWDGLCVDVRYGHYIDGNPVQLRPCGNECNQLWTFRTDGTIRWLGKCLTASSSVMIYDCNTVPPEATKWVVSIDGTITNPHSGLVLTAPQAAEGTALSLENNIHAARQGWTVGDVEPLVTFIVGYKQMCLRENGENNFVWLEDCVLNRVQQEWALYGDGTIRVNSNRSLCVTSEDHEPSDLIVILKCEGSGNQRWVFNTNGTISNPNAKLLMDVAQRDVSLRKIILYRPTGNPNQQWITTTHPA

Chain of fetuin (P12763 19-359): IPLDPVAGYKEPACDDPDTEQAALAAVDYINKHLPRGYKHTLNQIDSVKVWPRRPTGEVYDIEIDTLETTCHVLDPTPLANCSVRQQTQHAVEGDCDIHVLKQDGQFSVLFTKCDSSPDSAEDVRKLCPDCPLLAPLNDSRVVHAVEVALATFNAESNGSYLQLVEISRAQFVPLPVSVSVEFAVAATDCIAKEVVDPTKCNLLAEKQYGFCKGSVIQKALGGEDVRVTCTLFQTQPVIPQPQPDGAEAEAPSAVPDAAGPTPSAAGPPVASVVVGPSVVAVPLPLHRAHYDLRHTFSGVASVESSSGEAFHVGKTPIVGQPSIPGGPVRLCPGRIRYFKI

fetuin (from UniProt P12763 19-359)
amount of fetuin giving essentially complete inhibition of SVH1C binding (pmoles per well): 500 | percent inhibition of SVH1C binding at 100 pmoles fetuin per well: 50%
